Patent US20090196880A1 (VASGENE THERAPEUTICS, published 2009)

B1: mouse monoclonal antibody #47 (antibody, V domains shown)
VH: EVQLQQSGPELVKPGASVKISCKASGYTFTDYYMNWVKQSHGKGLEWIGDNNPNNGGTTYNQKFKGKATLTVDKSSSTAYMELRSLTSEDSAVYYCARGKYYGTSYGWYFDVWGTGTTVTVSS
VL: DIQMTQSPASLSASVGETVTITCRISDNIDSYLAWFQQKQGKSPQLLVYDATVLADGVPSRFSGSGSGTQYSLKINSLQSEDAARYYCQVYYSIPWTFGGGTKLEIK
notes: also called m47; Mu #47
B2: mouse monoclonal antibody #131 (antibody, V domains shown)
VH: QVQLKQSGAELVKPGASVKISCKASGYTFTDYYINWVKQRPGQGLEWIGKIGPRIGTNYYNENFKGKATLTADISSNTAYMQLHTLTSEDSAVYFCARSEDYSGYVSYALDYWGQGTSVTVSS
VL: NIVMTQSPKSMSMSVGERVTLSCKASENVDTYVSWYQQKPDQSPELLIYGASNRYTGVPDRFTGSGSATDFTLTISSVQAEDLADYHCGQTYRYPFTFGGGTKLEIK
notes: also called m131

Target: T1, EphB4 in whole cell lysate of 293 cells stably transfected with EphB4 (human, UniProt P54760 16-987)
T1 construct: Denatured protein from the lysate of transfected 293 cells (Western blot)
T1 sequence: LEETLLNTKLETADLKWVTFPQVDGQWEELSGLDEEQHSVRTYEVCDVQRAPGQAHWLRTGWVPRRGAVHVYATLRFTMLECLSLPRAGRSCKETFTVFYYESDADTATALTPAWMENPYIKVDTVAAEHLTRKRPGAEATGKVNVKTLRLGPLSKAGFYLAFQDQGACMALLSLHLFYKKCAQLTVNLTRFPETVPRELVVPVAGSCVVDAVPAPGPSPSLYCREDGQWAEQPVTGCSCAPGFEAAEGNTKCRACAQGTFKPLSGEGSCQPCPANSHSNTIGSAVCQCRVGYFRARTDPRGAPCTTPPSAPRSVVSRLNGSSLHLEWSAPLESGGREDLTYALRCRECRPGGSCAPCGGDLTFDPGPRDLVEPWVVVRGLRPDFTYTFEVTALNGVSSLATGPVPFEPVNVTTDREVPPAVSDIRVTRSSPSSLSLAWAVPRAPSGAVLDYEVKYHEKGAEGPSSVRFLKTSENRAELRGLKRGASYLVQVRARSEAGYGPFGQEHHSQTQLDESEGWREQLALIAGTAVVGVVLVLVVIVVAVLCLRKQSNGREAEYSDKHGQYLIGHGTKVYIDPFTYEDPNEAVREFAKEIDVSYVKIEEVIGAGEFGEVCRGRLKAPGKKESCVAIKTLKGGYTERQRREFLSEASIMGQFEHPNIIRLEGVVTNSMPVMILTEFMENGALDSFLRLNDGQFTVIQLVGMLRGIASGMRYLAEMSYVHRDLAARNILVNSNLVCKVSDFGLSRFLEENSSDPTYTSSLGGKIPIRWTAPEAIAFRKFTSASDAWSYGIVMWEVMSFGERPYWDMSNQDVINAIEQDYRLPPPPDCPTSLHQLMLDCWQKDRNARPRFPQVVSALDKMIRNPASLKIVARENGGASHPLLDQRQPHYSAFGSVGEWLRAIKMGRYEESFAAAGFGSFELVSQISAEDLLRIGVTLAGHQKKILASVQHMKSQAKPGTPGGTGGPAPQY
Test: Western blot on lysate of EphB4-transfected 293 cells

Binder | binding result
B1 | binds
B2 | binds
